B1: TRIM43 (parent)
chain: YQEIFQQLQRSWVKMDQKSKHLKE

Variants of: B1
Assay: protein stability index of a GFP-peptide fusion (GPS, HEK-293T) (PSI 1-6); higher = more stable
Conditions: c terminus: a fixed tail appended
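Further: lentivirally expressed fusions sorted by FACS into six bins by GFP to DsRed ratio, PSI derived from sequencing read proportions per bin multiplied by bin number.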

| Variant | protein stability index |
| --- | --- |
| YQEIFQQLQRSWVKMDQMSKHLKE [K18M] | 1.64 |
| YQEIFQQLQRSWVKMDQNSKHLKE [K18N] | 2.34 |
| YQEIFQQLQRSWVKMDQPSKHLKE [K18P] | 2.1 |
| YQEIFQQLQRSWVKMDQQSKHLKE [K18Q] | 2.4 |
| YQEIFQQLQRSWVKMDQRSKHLKE [K18R] | 2.57 |
| YQEIFQQLQRSWVKMDQSSKHLKE [K18S] | 2 |
| YQEIFQQLQRSWVKMDQTSKHLKE [K18T] | 2.71 |
| YQEIFQQLQRSWVKMDQVSKHLKE [K18V] | 1.69 |
| YQEIFQQLQRSWVKMDQWSKHLKE [K18W] | 1.77 |
| YQEIFQQLQRSWVKMDQYSKHLKE [K18Y] | 1.86 |
| YQEIFQQLQRSWVKMDQKAKHLKE [S19A] | 3.09 |
| YQEIFQQLQRSWVKMDQKCKHLKE [S19C] | 1.99 |
| YQEIFQQLQRSWVKMDQKDKHLKE [S19D] | 2.68 |
| YQEIFQQLQRSWVKMDQKEKHLKE [S19E] | 2.29 |
| YQEIFQQLQRSWVKMDQKFKHLKE [S19F] | 1.95 |
| YQEIFQQLQRSWVKMDQKGKHLKE [S19G] | 1.86 |
| YQEIFQQLQRSWVKMDQKHKHLKE [S19H] | 1.83 |
| YQEIFQQLQRSWVKMDQKIKHLKE [S19I] | 3.05 |
| YQEIFQQLQRSWVKMDQKKKHLKE [S19K] | 1.77 |
| YQEIFQQLQRSWVKMDQKLKHLKE [S19L] | 3.31 |
| YQEIFQQLQRSWVKMDQKMKHLKE [S19M] | 2.44 |
| YQEIFQQLQRSWVKMDQKNKHLKE [S19N] | 2.35 |
| YQEIFQQLQRSWVKMDQKPKHLKE [S19P] | 2.3 |
| YQEIFQQLQRSWVKMDQKQKHLKE [S19Q] | 2.14 |
| YQEIFQQLQRSWVKMDQKRKHLKE [S19R] | 1.98 |

| Variant | protein stability index |
| --- | --- |
| YQEIFQQLQRSWVKMDQKTKHLKE [S19T] | 2.86 |
| YQEIFQQLQRSWVKMDQKVKHLKE [S19V] | 2.12 |
| YQEIFQQLQRSWVKMDQKWKHLKE [S19W] | 2.56 |
| YQEIFQQLQRSWVKMDQKYKHLKE [S19Y] | 3 |
| YQEIFQQLQRSWVKMDQKSAHLKE [K20A] | 2.74 |
| YQEIFQQLQRSWVKMDQKSCHLKE [K20C] | 1.76 |
| YQEIFQQLQRSWVKMDQKSDHLKE [K20D] | 2 |
| YQEIFQQLQRSWVKMDQKSEHLKE [K20E] | 2.85 |
| YQEIFQQLQRSWVKMDQKSFHLKE [K20F] | 2.56 |
| YQEIFQQLQRSWVKMDQKSGHLKE [K20G] | 2.31 |
| YQEIFQQLQRSWVKMDQKSHHLKE [K20H] | 2.19 |
| YQEIFQQLQRSWVKMDQKSIHLKE [K20I] | 1.95 |
| YQEIFQQLQRSWVKMDQKSLHLKE [K20L] | 1.82 |
| YQEIFQQLQRSWVKMDQKSMHLKE [K20M] | 2.24 |
| YQEIFQQLQRSWVKMDQKSNHLKE [K20N] | 2.44 |
| YQEIFQQLQRSWVKMDQKSPHLKE [K20P] | 2.48 |
| YQEIFQQLQRSWVKMDQKSQHLKE [K20Q] | 2.36 |
| YQEIFQQLQRSWVKMDQKSRHLKE [K20R] | 1.59 |
| YQEIFQQLQRSWVKMDQKSSHLKE [K20S] | 1.85 |
| YQEIFQQLQRSWVKMDQKSTHLKE [K20T] | 1.86 |
| YQEIFQQLQRSWVKMDQKSVHLKE [K20V] | 1.94 |
| YQEIFQQLQRSWVKMDQKSWHLKE [K20W] | 2.42 |
| YQEIFQQLQRSWVKMDQKSYHLKE [K20Y] | 1.68 |
| YQEIFQQLQRSWVKMDQKSKALKE [H21A] | 2.23 |
| YQEIFQQLQRSWVKMDQKSKCLKE [H21C] | 2.65 |

| Variant | protein stability index |
| --- | --- |
| YQEIFQQLQRSWVKMDQKSKDLKE [H21D] | 2.56 |
| YQEIFQQLQRSWVKMDQKSKELKE [H21E] | 2.68 |
| YQEIFQQLQRSWVKMDQKSKFLKE [H21F] | 1.94 |
| YQEIFQQLQRSWVKMDQKSKGLKE [H21G] | 2.33 |
| YQEIFQQLQRSWVKMDQKSKILKE [H21I] | 2.09 |
| YQEIFQQLQRSWVKMDQKSKKLKE [H21K] | 2.04 |
| YQEIFQQLQRSWVKMDQKSKLLKE [H21L] | 1.91 |
| YQEIFQQLQRSWVKMDQKSKMLKE [H21M] | 2.5 |
| YQEIFQQLQRSWVKMDQKSKNLKE [H21N] | 2.59 |
| YQEIFQQLQRSWVKMDQKSKPLKE [H21P] | 1.64 |
| YQEIFQQLQRSWVKMDQKSKQLKE [H21Q] | 2.28 |
| YQEIFQQLQRSWVKMDQKSKRLKE [H21R] | 2.53 |
| YQEIFQQLQRSWVKMDQKSKSLKE [H21S] | 2.37 |
| YQEIFQQLQRSWVKMDQKSKTLKE [H21T] | 2.28 |
| YQEIFQQLQRSWVKMDQKSKVLKE [H21V] | 1.79 |
| YQEIFQQLQRSWVKMDQKSKWLKE [H21W] | 1.53 |
| YQEIFQQLQRSWVKMDQKSKYLKE [H21Y] | 2.27 |
| YQEIFQQLQRSWVKMDQKSKHAKE [L22A] | 2.22 |
| YQEIFQQLQRSWVKMDQKSKHCKE [L22C] | 2.6 |
| YQEIFQQLQRSWVKMDQKSKHDKE [L22D] | 3.28 |
| YQEIFQQLQRSWVKMDQKSKHEKE [L22E] | 3.27 |
| YQEIFQQLQRSWVKMDQKSKHFKE [L22F] | 1.91 |
| YQEIFQQLQRSWVKMDQKSKHGKE [L22G] | 2.6 |
| YQEIFQQLQRSWVKMDQKSKHHKE [L22H] | 2.35 |
| YQEIFQQLQRSWVKMDQKSKHIKE [L22I] | 2.21 |

| Variant | protein stability index |
| --- | --- |
| YQEIFQQLQRSWVKMDQKSKHKKE [L22K] | 2.45 |
| YQEIFQQLQRSWVKMDQKSKHMKE [L22M] | 2.13 |
| YQEIFQQLQRSWVKMDQKSKHNKE [L22N] | 2.53 |
| YQEIFQQLQRSWVKMDQKSKHPKE [L22P] | 2.94 |
| YQEIFQQLQRSWVKMDQKSKHQKE [L22Q] | 2.91 |
| YQEIFQQLQRSWVKMDQKSKHRKE [L22R] | 2.75 |
| YQEIFQQLQRSWVKMDQKSKHSKE [L22S] | 3.29 |
| YQEIFQQLQRSWVKMDQKSKHTKE [L22T] | 2.62 |
| YQEIFQQLQRSWVKMDQKSKHVKE [L22V] | 2.39 |
| YQEIFQQLQRSWVKMDQKSKHWKE [L22W] | 1.65 |
| YQEIFQQLQRSWVKMDQKSKHYKE [L22Y] | 1.92 |
| YQEIFQQLQRSWVKMDQKSKHLAE [K23A] | 2.92 |
| YQEIFQQLQRSWVKMDQKSKHLCE [K23C] | 1.74 |
| YQEIFQQLQRSWVKMDQKSKHLDE [K23D] | 2.41 |
| YQEIFQQLQRSWVKMDQKSKHLEE [K23E] | 2.6 |
| YQEIFQQLQRSWVKMDQKSKHLFE [K23F] | 1.47 |
| YQEIFQQLQRSWVKMDQKSKHLGE [K23G] | 2.54 |
| YQEIFQQLQRSWVKMDQKSKHLHE [K23H] | 1.79 |
| YQEIFQQLQRSWVKMDQKSKHLIE [K23I] | 3.31 |
| YQEIFQQLQRSWVKMDQKSKHLLE [K23L] | 1.66 |
| YQEIFQQLQRSWVKMDQKSKHLME [K23M] | 2.33 |
| YQEIFQQLQRSWVKMDQKSKHLNE [K23N] | 2.03 |
| YQEIFQQLQRSWVKMDQKSKHLPE [K23P] | 2.08 |
| YQEIFQQLQRSWVKMDQKSKHLQE [K23Q] | 2.11 |
| YQEIFQQLQRSWVKMDQKSKHLRE [K23R] | 1.22 |

| Variant | protein stability index |
| --- | --- |
| YQEIFQQLQRSWVKMDQKSKHLSE [K23S] | 2.15 |
| YQEIFQQLQRSWVKMDQKSKHLTE [K23T] | 2.14 |
| YQEIFQQLQRSWVKMDQKSKHLVE [K23V] | 1.92 |
| YQEIFQQLQRSWVKMDQKSKHLWE [K23W] | 2.33 |
| YQEIFQQLQRSWVKMDQKSKHLYE [K23Y] | 1.58 |
| YQEIFQQLQRSWVKMDQKSKHLKA [E24A] | 1.89 |
| YQEIFQQLQRSWVKMDQKSKHLKC [E24C] | 2.13 |
| YQEIFQQLQRSWVKMDQKSKHLKD [E24D] | 2.48 |
| YQEIFQQLQRSWVKMDQKSKHLKF [E24F] | 1.92 |
| YQEIFQQLQRSWVKMDQKSKHLKG [E24G] | 1.78 |
| YQEIFQQLQRSWVKMDQKSKHLKH [E24H] | 2.33 |
| YQEIFQQLQRSWVKMDQKSKHLKI [E24I] | 1.78 |
| YQEIFQQLQRSWVKMDQKSKHLKK [E24K] | 1.99 |
| YQEIFQQLQRSWVKMDQKSKHLKL [E24L] | 2.45 |
| YQEIFQQLQRSWVKMDQKSKHLKM [E24M] | 1.71 |
| YQEIFQQLQRSWVKMDQKSKHLKN [E24N] | 2.28 |
| YQEIFQQLQRSWVKMDQKSKHLKP [E24P] | 1.81 |
| YQEIFQQLQRSWVKMDQKSKHLKQ [E24Q] | 1.57 |
| YQEIFQQLQRSWVKMDQKSKHLKR [E24R] | 1.8 |
| YQEIFQQLQRSWVKMDQKSKHLKS [E24S] | 2.78 |
| YQEIFQQLQRSWVKMDQKSKHLKT [E24T] | 1.91 |
| YQEIFQQLQRSWVKMDQKSKHLKV [E24V] | 1.81 |
| YQEIFQQLQRSWVKMDQKSKHLKW [E24W] | 2.41 |
| YQEIFQQLQRSWVKMDQKSKHLKY [E24Y] | 1.95 |

From the supplement of paper PMC10567573
